Biological target: human FcγRIIA (R131 variant) expressed on Jurkat cells (UniProt P12318)
Test: FLIM
Conditions: Jurkat cells co-expressing FcγRIIA and Mac-1; donor anti-FcγRIIA IV.3 AF488 + acceptor anti-Mac-1 (CD11b) ICRF44 AF568; n = 3 experiments

Sequence of UniProt P12318 (P12318 34-217, change not shown): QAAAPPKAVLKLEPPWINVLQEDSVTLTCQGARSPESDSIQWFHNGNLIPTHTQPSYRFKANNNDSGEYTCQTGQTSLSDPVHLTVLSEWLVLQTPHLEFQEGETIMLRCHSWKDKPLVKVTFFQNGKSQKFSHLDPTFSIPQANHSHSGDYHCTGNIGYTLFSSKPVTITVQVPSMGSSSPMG

other: FcγRIIA fluorescence lifetime tm (donor + acceptor): 1830 ps
Substance: human Mac-1 (CD11b/CD18), wild type, expressed on Jurkat cells (from UniProt P11215;P05107) E253-R261 (… replaced with … of CD11a)

— paper PMC6265255
